± gives the standard deviation of the averaged measurements.

Common to all, as to test: protein stability index of tFT-peptide fusion (C-terminal peptide) (PSI (0-1 scale)); higher = more stable (slower turnover)
Data set [1] relates to Saccharomyces cerevisiae. Conditions: temperature: 30 C. The procedure: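 MPS profiling in S. cerevisiae of the yeast C-terminome library: the last 12 aa of each annotated ORF are fused to the C-terminus of a sfGFP-mCherry timer, after a GGGS linker. Cells are FACS-sorted into 8 mCherry/sfGFP bins and deep-sequenced. PSI runs from 0 (unstable) to 1 (stable); wild type and das1Δ backgrounds, two technical replicates each.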

Data set [2] deals with Saccharomyces cerevisiae. On the procedure: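 MPS profiling in S. cerevisiae of the tFT-X12 degron library: putative degron peptides plus stable controls, 12 aa, fused to the C-terminus of a sfGFP-mCherry timer. Cells are FACS-sorted into 8 mCherry/sfGFP bins and deep-sequenced. PSI runs from 0 (unstable) to 1 (stable). Backgrounds are wild type, das1Δ and doa10Δ at 30 °C, and wild type, das1Δ, cdc34-1 and cdc53-1 at 37 °C; 2-3 technical replicates each.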

Data set [3] deals with Saccharomyces cerevisiae. Conditions: genetic background: wild type; temperature: 30 C.
Setting [4] is: genetic background: das1 deletion.

With AALESEDEDDEA [CAF20 C-terminal 12 aa], the values for the protein stability index in data set [1] (setting [4]) and in data set [1] (genetic background: wild type) were 0.685 ± 0.041 and 0.6667 ± 0.0033, respectively.
For ADDDFDADMELE [CDC16 C-terminal 12 aa], the protein stability index in data set [1] (setting [4]) was determined as 0.685 ± 0.0038; in data set [1] (genetic background: wild type), 0.728 ± 0.028.
As to ADQELFMGIMNA [NMD5 C-terminal 12 aa], the protein stability index was 0.676 ± 0.012 in data set [1] (setting [4]) and 0.677 ± 0.0097 in data set [1] (genetic background: wild type).
The corresponding values for AERAGNAGVKAE [SND3 C-terminal 12 aa] are 0.654 ± 0.0096 and 0.685 ± 0.017.
Regarding AFTAKWKAENKQ [FYV4 C-terminal 12 aa], the protein stability index in data set [1] (setting [4]) was determined as 0.691 ± 0.017; in data set [1] (genetic background: wild type), 0.6671 ± 0.0054.
In the case of AGAAAVANQGKK [GPM1 C-terminal 12 aa], the protein stability index in data set [1] (setting [4]) was 0.697 ± 0.016; in data set [1] (genetic background: wild type), 0.715 ± 0.064.
Take AIAEIKKSLAFA [SDH2 C-terminal 12 aa]: the protein stability index in data set [1] (setting [4]) stood at 0.684 ± 0.024; in data set [1] (genetic background: wild type) it was 0.688 ± 0.086.
For the sequence AIRRENEWAEDR [SKP1 C-terminal 12 aa], the protein stability index was determined as 0.6841 ± 0.005 in data set [1] (setting [4]) and 0.709 ± 0.0089 in data set [1] (genetic background: wild type).
For AKDIKGYGTQKI [PRE4 C-terminal 12 aa] the same measures were 0.65979 ± 0.00058 and 0.695 ± 0.022.
Regarding AKISDKENKAFL [MRPL15 C-terminal 12 aa], the protein stability index came to 0.6927 ± 0.0019 in data set [1] (setting [4]) and 0.678 ± 0.025 in data set [1] (genetic background: wild type).
With AKPALFERFINA [MCD1 C-terminal 12 aa], the values for the protein stability index in data set [1] (setting [4]) and in data set [1] (genetic background: wild type) were 0.6979 ± 0.0043 and 0.665 ± 0.011, respectively.
As to AKTSLYTATVIS [PAC11 C-terminal 12 aa], the protein stability index in data set [1] (setting [4]) turned out to be 0.636 ± 0.015; in data set [1] (genetic background: wild type) it was 0.6331 ± 0.006.
With ALNQVLGVPGAM [SSH1 C-terminal 12 aa], the protein stability index stood at 0.683 ± 0.017 in data set [1] (setting [4]) and 0.671 ± 0.031 in data set [1] (genetic background: wild type).
With ALVDQLIAKYSS [ACB1 C-terminal 12 aa], the protein stability index worked out at 0.703 ± 0.029 in data set [1] (setting [4]) and 0.663 ± 0.042 in data set [1] (genetic background: wild type).
As for ANARLESESKDP [UNG1 C-terminal 12 aa], the protein stability index in data set [1] (setting [4]) was 0.6954 ± 0.0034; in data set [1] (genetic background: wild type), 0.667 ± 0.033.
For the sequence ANGTSPGVHVRE [IRC15 C-terminal 12 aa], the protein stability index is 0.693 ± 0.0096 in data set [1] (setting [4]) and 0.678 ± 0.017 in data set [1] (genetic background: wild type).
As for ARGAGGFGSTGN [DUT1 C-terminal 12 aa], the protein stability index in data set [1] (setting [4]) stood at 0.697 ± 0.0079; in data set [1] (genetic background: wild type) it was 0.7208 ± 0.0062.
On to ARRTFTGRKIVY [ARC35 C-terminal 12 aa], for which the protein stability index stood at 0.7301 ± 0.0013 in data set [1] (setting [4]) and 0.7288 ± 0.0052 in data set [1] (genetic background: wild type).
In the case of ASEKEKSECVVM [MIY2 C-terminal 12 aa], the results for the protein stability index in data set [1] (setting [4]) and in data set [1] (genetic background: wild type) were 0.733 ± 0.017 and 0.745 ± 0.0097, respectively.
As to “ASFAKDVISLPE [YER046W-A C-terminal 12 aa]”, the protein stability index was 0.7202 ± 0.00094 in data set [1] (setting [4]) and 0.699 ± 0.079 in data set [1] (genetic background: wild type).
With ASRHSSTKKTST [CAB1 C-terminal 12 aa], the figures for the protein stability index in data set [1] (setting [4]) and in data set [1] (genetic background: wild type) were 0.6986 ± 0.0058 and 0.692 ± 0.054, respectively.
For ATGTKSDRPIWR [SHE1 C-terminal 12 aa], the protein stability index was found to be 0.6627 ± 0.00093 in data set [1] (setting [4]) and 0.72 ± 0.034 in data set [1] (genetic background: wild type).
As to “ATRNLNQYWRVL [YAL019W-A C-terminal 12 aa]”, the protein stability index was 0.68 ± 0.011 in data set [1] (setting [4]) and 0.58 ± 0.023 in data set [1] (genetic background: wild type).
The corresponding values for AVGETRLKKSKK [PRP21 C-terminal 12 aa] are 0.689 ± 0.016 and 0.779 ± 0.12.
In the case of AVSEELIKMWYD [GCN3 C-terminal 12 aa], the protein stability index is 0.7218 ± 0.0015 in data set [1] (setting [4]) and 0.736 ± 0.037 in data set [1] (genetic background: wild type).
For the sequence AYECAKHFLMTY [MRS3 C-terminal 12 aa], the protein stability index in data set [1] (setting [4]) was found to be 0.689 ± 0.033; in data set [1] (genetic background: wild type) it was 0.653 ± 0.057.
For the sequence CFRWLVRNHLLS [YEL045C C-terminal 12 aa], the protein stability index came to 0.692 ± 0.0081 in data set [1] (setting [4]) and 0.187 ± 0.0022 in data set [1] (genetic background: wild type).
The corresponding values for CHAYAKKAKEFL [PAM17 C-terminal 12 aa] are 0.694 ± 0.019 and 0.7 ± 0.047.
As for CKSHAITNNITM [YER152C C-terminal 12 aa], the figures for the protein stability index in data set [1] (setting [4]) and in data set [1] (genetic background: wild type) were 0.711 ± 0.026 and 0.687 ± 0.0091, respectively.
For CPTPGCTCQCNK [SEA4 C-terminal 12 aa] the same measures were 0.69 ± 0.015 and 0.659 ± 0.0093.
Regarding CRKGVSHKGVCH [YBL111C C-terminal 12 aa], the protein stability index in data set [1] (setting [4]) was 0.721 ± 0.026; in data set [1] (genetic background: wild type), 0.71 ± 0.035.
Take “CSTFAFAERLQC [YIL021C-A C-terminal 12 aa]”: the values for the protein stability index in data set [1] (setting [4]) and in data set [1] (genetic background: wild type) were 0.6901 ± 0.003 and 0.642 ± 0.029, respectively.
For the sequence CYYKTQKSQISN [SIP1 C-terminal 12 aa], the protein stability index came out at 0.715 ± 0.011 in data set [1] (setting [4]) and 0.727 ± 0.016 in data set [1] (genetic background: wild type).
Take DALHKMDKNVLE [YOL029C C-terminal 12 aa]: the protein stability index was found to be 0.696 ± 0.028 in data set [1] (setting [4]) and 0.728 ± 0.076 in data set [1] (genetic background: wild type).
As for DAMEFIAQSHKS [OCT1 C-terminal 12 aa], the protein stability index in data set [1] (setting [4]) stood at 0.694 ± 0.011; in data set [1] (genetic background: wild type) it was 0.719 ± 0.021.
Take DASALIEIQEKC [SST2 C-terminal 12 aa]: the protein stability index in data set [1] (setting [4]) turned out to be 0.669 ± 0.021; in data set [1] (genetic background: wild type), 0.695 ± 0.059.
Take DASSTKNTDHIV [MEP2 C-terminal 12 aa]: the values for the protein stability index in data set [1] (setting [4]) and in data set [1] (genetic background: wild type) were 0.678 ± 0.014 and 0.679 ± 0.068, respectively.
In the case of VYVVCFRLGCWV, the protein stability index came to 0.222 ± 0.0066 in data set [2] (genetic background: cdc34-1, temperature: 37 C); 0.321 ± 0.013 in data set [2] (genetic background: cdc53-1, temperature: 37 C); 0.199 ± 0.035 in data set [2] (genetic background: das1 deletion, temperature: 30 C); 0.39 ± 0.0064 in data set [2] (genetic background: das1 deletion, temperature: 37 C); 0.172 ± 0.0025 in data set [2] (genetic background: doa10 deletion, temperature: 30 C); 0.2 ± 0.022 in data set [2] (genetic background: wild type, temperature: 30 C). Moreover, the protein stability index was found to be 0.371 ± 0.0082 in data set [2] (genetic background: wild type, temperature: 37 C) and 0.297 ± 0.036 in data set [3].
